Consider 16 molecules from PMC8273886, “Design of a Stable Cyclic Peptide Analgesic Derived from Sunflower Seeds that Targets the κ-Opioid Receptor for the Treatment of Chronic Abdominal Pain” (Journal of Medicinal Chemistry, 2021).

The target in test [1] is T1, mouse κ-opioid receptor (KOR) tagged with EGFP (mouse, UniProt P33534 1-380).
T1 construct: κ-opioid receptor, mouse; cloned into the pEGFP-N1 vector with BamHI and HindIII; read as EGFP at the receptor's C-terminus; also called mouse KOR; KOR-EGFP; source: HEK293, stably expressing (membrane preparations; whole cells for cAMP); HEK293, transiently transfected (BRET); not shown: EGFP, C-terminal, kept
The experiment in a line: radioligand binding; concentration-dependent competition against 1 nM [3H]-diprenorphine on membranes (7 μg/assay) of HEK293 cells stably expressing the mouse KOR; 50 mM Tris–HCl pH 7.4, 10 mM MgCl2, 0.1% BSA; 1 h at 37 °C; Ki from IC50 by Cheng and Prusoff. The conditions noted are these: one partner purified.

Test [2] addresses T1, mouse κ-opioid receptor (KOR) tagged …. The experiment in a line: radioligand binding; two-point displacement: 1 nM [3H]-diprenorphine with or without 10 μM or 100 nM peptide on membranes of HEK293 cells stably expressing the mouse KOR. The conditions noted are these: one partner purified.
The target in test [3] is T2, mouse δ-opioid receptor (DOR) (mouse, UniProt P32300 1-372).
T2 construct: δ-opioid receptor, mouse; the construct is not described; source: HEK293, stably expressing, membrane preparations
The experiment in a line: radioligand binding; competition against [3H]-diprenorphine on membranes of HEK293 cells stably expressing the mouse MOR (50 μg) or DOR (20 μg); 50 mM Tris–HCl pH 7.4, 10 mM MgCl2, 0.1% BSA; 1 h at 37 °C. As to conditions: one partner purified.

In test [4] the target is T3, mouse μ-opioid receptor (MOR) (mouse, UniProt P42866 1-398).
T3 construct: μ-opioid receptor, mouse; the construct is not described; source: HEK293, stably expressing, membrane preparations
The description is as above. The conditions noted are these: one partner purified.

For test [5], the target named is T1, mouse κ-opioid receptor (KOR) tagged …. As to the kind of experiment: cell-based or functional assay.
For test [6] the target is unchanged. As to the kind of experiment: cell-based or functional assay. The source holds these as a separate data set.
Test [7] has the same target. As to the kind of experiment: radioligand binding; three concentrations of SFTI-1 (μM), displacement of 1 nM [3H]-diprenorphine on membranes of HEK293 cells stably expressing the mouse KOR. As to conditions: one partner purified.

Bridge positions count the residues as written; N and C are the ends. Square brackets hold non-standard residues; d marks the D form. dNle = CCCC[C@@H](N)C(=O)O

B1: helianorphin-18 (peptide)
peptide: cyclo(CTYGGFLRCRIRPKLK)
modifications: disulfide 1-9 (inferred)
notes: dyn A 1–13 divided into two fragments (YGGFLR and RIRPKLK) placed in the two loops of the SFTI-1 scaffold; source: synthetic peptide (Fmoc chemistry, backbone cyclised, oxidised, RP-HPLC purified)
Turning to B1, the affinity in test [1] corresponds to a Ki of 650 nM.

B2: helianorphin-7 (peptide)
peptide: cyclo(CTASIPPICYGGFLR)
modifications: disulfide 1-9 (inferred)
notes: SFTI-1 scaffold (K replaced with A) with YGGFL grafted after the second Cys; source: synthetic peptide (Fmoc chemistry, backbone cyclised, oxidised, RP-HPLC purified)
Consider B2, for which, in test [2], the Ki is above 10000 nM.

B3: helianorphin-19 (peptide)
peptide: cyclo(CYGGFLRRCIRPKLK)
modifications: disulfide 1-9 (inferred)
notes: dyn A 1–13 divided into two fragments (YGGFLRR and IRPKLK) placed in the two loops of the SFTI-1 scaffold; source: synthetic peptide (Fmoc chemistry, backbone cyclised, oxidised, RP-HPLC purified)
On to B3, for which the values for the Ki in test [3], in test [4] and in test [1] were above 10000 nM, above 10000 nM and 21 nM, respectively. The “cAMP inhibition in HEK293 cells stably expressing the mouse KOR, EC50” value (“cAMP inhibition … EC50” for short) in test [5] was found to be 45 nM. For the same molecule, the “cAMP inhibition in HEK293 cells stably expressing the mouse KOR, Emax” value (“cAMP inhibition … Emax” for short) in test [5] amounted to 108%. Moreover, the “β-arrestin-2 recruitment to the KOR (BRET, HEK293 cells with mouse KOR-EGFP and β-arrestin-2-nano-luciferase), EC50” value in test [6] was 1400 nM.

B4: helianorphin-5 (peptide)
peptide: cyclo(CYGGFLRICFPDGR)
modifications: disulfide 1-9 (inferred)
notes: SFTI-1 scaffold with dyn A 1–6 (YGGFLR) grafted after the first Cys; source: synthetic peptide (Fmoc chemistry, backbone cyclised, oxidised, RP-HPLC purified)
The molecule B4 registered a Ki in test [2] above 10000 nM.

B5: helianorphin-9 (peptide)
peptide: cyclo(CTASIPPICYGGFR)
modifications: disulfide 1-9 (inferred)
notes: SFTI-1 scaffold (K replaced with A) with dyn A 1–4 (YGGF) grafted after the second Cys; source: synthetic peptide (Fmoc chemistry, backbone cyclised, oxidised, RP-HPLC purified)
Take B5: the Ki in test [2] was above 10000 nM.
cyclo(CTASIPPIC[dF][dF][dNle][dR]R) (disulfide 1-9 (inferred)) [helianorphin-13]: in test [2], the inhibition constant Ki is above 10000 nM.

B6: helianorphin-11 (peptide)
peptide: cyclo(CTASIPPIC[dF][dF][dL][dK]R)
modifications: disulfide 1-9 (inferred)
notes: source: synthetic peptide (Fmoc chemistry, backbone cyclised, oxidised, RP-HPLC purified)
On to B6, for which the Ki in test [2] was above 10000 nM.

B7: helianorphin-10 (peptide)
peptide: cyclo(CT[dF][dF][dL][dK]PICFPDGR)
modifications: disulfide 1-9 (inferred)
notes: as for B6
B7 showed a Ki in test [2] above 10000 nM.

B8: helianorphin-6 (peptide)
peptide: cyclo(CTYGGFLRCFPDGR)
modifications: disulfide 1-9 (inferred)
notes: SFTI-1 scaffold with dyn A 1–6 (YGGFLR) grafted after CT; source: synthetic peptide (Fmoc chemistry, backbone cyclised, oxidised, RP-HPLC purified)
For the molecule B8, in test [2], the Ki was above 10000 nM.

B9: sunflower trypsin inhibitor-1 (SFTI-1) (peptide)
peptide: cyclo(CTKSIPPICFPDGR)
modifications: disulfide 1-9 (inferred)
notes: SFTI-1, 14-residue cyclic peptide from the seeds of sunflower (Helianthus annuus); The methods say that all peptides were synthesised; source: synthetic peptide (Fmoc chemistry, backbone cyclised, oxidised, RP-HPLC purified)
In test [7], B9 showed a Ki above 30000 nM.

B10: helianorphin-3 (peptide)
peptide: cyclo(CYGGFLRRICFPDGR)
modifications: disulfide 1-10 (inferred)
notes: as for B6
Turning to B10, in test [5], the “cAMP inhibition … EC50” value stood at 1400 nM and the “cAMP inhibition … Emax” value was found to be 85.1%. The same molecule had a Ki in test [1] of 3200 nM.
As for cyclo(CYGGFLRRIRPKLKCFPDGR) (disulfide 1-15 (inferred)) [helianorphin-1], the “cAMP inhibition … Emax” value in test [5] came to 106%.

B11: helianorphin-4 (peptide)
peptide: cyclo(CTKSIPPICYGGFLRRI)
modifications: disulfide 1-9 (inferred)
notes: as for B6
Consider B11, for which, in test [5], the “cAMP inhibition … EC50” value stood at 4700 nM and the “cAMP inhibition … Emax” value was 87.8%. Further, affinity in test [1] was put at a Ki of 2500 nM.

B12: helianorphin-2 (peptide)
peptide: cyclo(CTKSIPPICYGGFLRRIRPKLK)
modifications: disulfide 1-9 (inferred)
notes: as for B6
On to B12, for which, in test [5], the “cAMP inhibition … EC50” value turned out to be 1300 nM and the “cAMP inhibition … Emax” value was 102%. For the same molecule, the Ki in test [1] was determined as 97 nM.

B13: helianorphin-8 (peptide)
peptide: cyclo(CTYGGFPICFPDGR)
modifications: disulfide 1-9 (inferred)
notes: SFTI-1 scaffold with dyn A 1–4 (YGGF) grafted after CT; source: synthetic peptide (Fmoc chemistry, backbone cyclised, oxidised, RP-HPLC purified)
In turn, B13 came in with a Ki in test [2] above 10000 nM.
As for cyclo(CT[dF][dF][dNle][dR]PICFPDGR) (disulfide 1-9 (inferred)) [helianorphin-12], in test [5], the “cAMP inhibition … Emax” value was 117%.
